Source: patent US20150201588A1

How the values were obtained:
human CD20 (human) [1] = biological target: human CD20 (human) (UniProt P11836); experiment: QIFIKIT-based quantitative flow cytometry on Daudi cells (human Burkitt's lymphoma line, endogenous CD20)
human CD20 (human) [2] = biological target: human CD20 (human) (UniProt P11836); experiment: QIFIKIT-based quantitative flow cytometry on Cyno iPS-EPI-1504-3_Gluc/CD20 (exogenous CD20)
human CD20 (human) [3] = biological target: human CD20 (human) (UniProt P11836); experiment: QIFIKIT-based quantitative flow cytometry on Cyno iPS-EPI-1509-1_Gluc/CD20 (exogenous CD20)
human CD20 (human) [4] = biological target: human CD20 (human) (UniProt P11836); experiment: QIFIKIT-based quantitative flow cytometry on Cyno iPS-EPI-1504-1_Gluc/CD20 (exogenous CD20)

Sequence of UniProt P11836 (P11836 whole entry): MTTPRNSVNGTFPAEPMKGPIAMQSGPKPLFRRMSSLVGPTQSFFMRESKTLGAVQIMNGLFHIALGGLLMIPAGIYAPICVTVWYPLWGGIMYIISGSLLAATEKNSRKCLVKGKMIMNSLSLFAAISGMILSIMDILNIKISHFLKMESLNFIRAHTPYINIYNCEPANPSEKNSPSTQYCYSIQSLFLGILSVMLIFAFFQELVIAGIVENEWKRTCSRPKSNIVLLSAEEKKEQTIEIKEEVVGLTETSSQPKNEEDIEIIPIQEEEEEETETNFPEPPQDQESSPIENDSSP

CD20 Surface Expression (Copies/Cell) (human CD20 (human) [1]): 388000 Copies/Cell
CD20 Surface Expression (Copies/Cell) (human CD20 (human) [2]): 1.22e+06 Copies/Cell
CD20 Surface Expression (Copies/Cell) (human CD20 (human) [3]): 1.48e+06 Copies/Cell
CD20 Surface Expression (Copies/Cell) (human CD20 (human) [4]): 1.38e+06 Copies/Cell
Substance: anti-CD20-FITC (clone 2H7) (antibody)
